The record followed here is article PMC10533412 (2023).

Assay [1] has as its target BTN3A1 B30.2 (Homo sapiens, UniProt O00481). The experiment in a line: ITC.
The target of assay [2] is BTN3A3 B30.2 (Homo sapiens, UniProt O00478). The experiment in a line: ITC. (In general: Isothermal titration calorimetry measures the heat released or taken up as one component is titrated into another.)
Assay [3] addresses BTN3A1 B30.2 domain (human, UniProt O00481 328-513). In words: ITC; with HMBPP.

Chain of BTN3A1 B30.2 (O00481 319-513): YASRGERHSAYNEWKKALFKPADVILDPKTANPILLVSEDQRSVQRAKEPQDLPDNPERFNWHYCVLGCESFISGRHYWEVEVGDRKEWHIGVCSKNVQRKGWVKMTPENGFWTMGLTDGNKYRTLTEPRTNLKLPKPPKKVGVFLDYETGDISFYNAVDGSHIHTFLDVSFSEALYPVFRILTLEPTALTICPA
Chain of BTN3A1 B30.2 domain (O00481 other isoform, or with tags, fused parts or gaps): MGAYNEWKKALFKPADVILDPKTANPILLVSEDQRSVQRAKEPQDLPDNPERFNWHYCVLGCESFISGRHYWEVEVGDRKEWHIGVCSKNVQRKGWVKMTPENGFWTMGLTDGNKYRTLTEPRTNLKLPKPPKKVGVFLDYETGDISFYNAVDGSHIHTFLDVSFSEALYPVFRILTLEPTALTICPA
Chain of BTN3A3 B30.2 (O00478 319-521): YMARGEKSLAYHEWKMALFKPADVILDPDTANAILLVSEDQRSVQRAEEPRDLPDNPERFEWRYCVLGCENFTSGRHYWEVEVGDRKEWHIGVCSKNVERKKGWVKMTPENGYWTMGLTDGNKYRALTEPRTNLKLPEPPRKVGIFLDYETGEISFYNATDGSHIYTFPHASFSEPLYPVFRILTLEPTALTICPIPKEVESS

B1: BTN2A1 B30.2 (protein)
chain: ELQVKEKLQEELRWRRTFLHAVDVVLDPDTAHPDLFLSEDRRSVRRCPFRHLGESVPDNPERFDSQPCVLGRESFASGKHYWEVEVENVIEWTVGVCRDSVERKGEVLLIPQNGFWTLEMHKGQYRAVSSPDRILPLKESLCRVGVFLDYEAGDVSFYNMRDRSHIYTCPRSAFSVPVRPFFRLGCEDSPIFICPALTGANGV
modifications: DMAPP
One may read the Kd as a measure of binding affinity in units of concentration. Read a high Kd as weaker binding. For B1, the Kd in assay [1] was found to be 12300 nM.

B2: BTN2A1 B30.2 (protein)
chain: ELQVKEKLQEELRWRRTFLHAVDVVLDPDTAHPDLFLSEDRRSVHRCPFRHLGESVPDNPERFDSQPCVLGRESFASGKHYWEVEVENVIEWTVGVCRDSVERKGEVLLIPQNGFWTLEMHKGQYRAVSSPDRILPLKESLCRVGVFLDYEAGDVSFYNMRDRSHIYTCPRSAFSVPVRPFFRLGCEDSPIFICPALTGANGV
Molecule B2 registered a Kd in assay [2] of 460 nM.

B3: BTN2A1 B30.2 (protein)
chain: ELQVKEKLQEELRWRRTFLHAVDVVLDPDTAHPDLFLSEDRRSVRRCPFRHLGESVPDNPERFDSQPCVLGRESFASGKHYWEVEVENVIEWTVGVCRDSVERKGEVLLIPQNGFWTLEMHKGQYRAVSSPDRILPLKESLCRVGVFLDYEAGDVSFYNMRDRSHIYTCPRSAFSVPVRPFFRLGCEDSPIFICPALTGANGV
modifications: IPP
Turning to B3, the affinity in assay [1], expressed as Kd, was 155000 nM.

B4: BTN2A1 B30.2 (protein)
chain: ELQVKEKLQEELRWRRTFLHAVDVVLDPDTAHPDLFLSEDRRSVRRCPFRHLGESVPDNPERFDSQPCVLGRESFASGKHYWEVEVENVIEWTVGVCRDSVERKGEVLLIPQNGFWTLEMHKGQYRAVSSPDRILPLKESLCRVGVFLDYEAGDVSFYNMRDRSHIYTCPRSAFSVPVRPFFRLGCEDSPIFICPALTGANGV
modifications: HMBPP
Consider B4, for which binding in assay [1] was characterised by a dissociation constant (Kd) of 611 nM.

B5: BTN2A1 B30.2 domain (domain or fragment)
chain: EELRWRRTFLHAVDVVLDPDTAHPDLFLSEDRRSVRRCPFRHLGESVPDNPERFDSQPCVLGRESFASGKHYWEVEVENVIEWTVGVCRDSVERKGEVLLIPQNGFWTLEMHKGQYRAVSSPDRILPLKESLCRVGVFLDYEAGDVSFYNMRDRSHIYTCPRSAFSVPVRPFFRLGCEDSPIFICPALTGANGVTVPEEGLTLHRVGTHQSL
modifications: limits from PDB 5ZXK/8JYE entity without the C-terminal LEHHHHHH; paper number minus 295 = entity position
The molecule B5 registered a Kd in assay [3] of 600 nM.
